Laboratory results taken from article PMC10866546, “Pseudomonas effector AvrB is a glycosyltransferase that rhamnosylates plant guardee protein RIN4” (Science Advances, 2024).
Residue numbers refer to the chain shown, from its start.

B1: GST-RIN4 T166A (natural protein)
chain: MARSNVPKFGNWEAEENVPYTAYFDKARKTRAPGSKIMNPNDPEYNSDSQSQAPPHPPSSRTKPEQVDTVRRSREHMRSREESELKQFGDAGGSSNEAANKRQGRASQNNSYDNKSPLHKNSYDGTGKSRPKPTNLRADESPEKVTVVPKFGDWDENNPSSADGYAHIFNKVREERSSGANVSGSSRTPTHQSSRNPNNTSSCCCFGFGGK
notes: source: E. coli BL21 (DE3), purified (Ni2+-NTA)
B2: GST-RIN4 T166E (natural protein)
chain: B1 chain with A166E
notes: as for B1

Target: T1, AvrB (WT), C-terminal 6xHis tag (P. syringae, UniProt P13835 1-321)
T1 construct: AvrB, type III secretion system effector of Pseudomonas syringae; cDNA in pET-29b; source: E. coli BL21 (DE3), purified (Ni2+-NTA)
Assay: pull-down; GST-tagged bait (10 μg) and prey (10 μg) with 10 μl glutathione agarose resin in 500 μl of 25 mM Hepes pH 7.4, 150 mM NaCl, 1 mM DTT, 0.1% Triton X-100, 5 mg BSA for blocking; 4°C, 30 min; three washes; SDS-PAGE, Coomassie staining
Details: both partners purified

Binder | binding result
B1 | binds
B2 | binds
